Results published in FireProtDB.

B1: S25F|E91D|D94E|L110F|G118A|L120R|H125R|D139G|A149L|A155V|S169A|D174E, Q88HV5 (parent)
chain: MPFQQGLLATPVPAHARHLFFTLQSPEALPAALDALLPQVDGKQLLLGVGAPLAKALGREIPGLRPFPLLDAAVENPSTQHALWLWLRGDERGDLLLRTQALEQALAPALSLADSVDGFLHRGGHDLTGYEDGTENPTDEEAVQAAIAADGSSFAAFQLWKHDLQYFKSLPQADQDNIIGRRLSDNEELDDAPASAHVKRTAQESFEPEAFMVRRSVSWADQRGAGLAFVALGKSFEAFEVQLRRMSGLEDGIIDGLYRFSRPLTGGYYWCPPMSETGVDLSPLLRA
B2: Formate dehydrogenase, O13437 (parent)
chain: MKIVLVLYDAGKHAADEEKLYGCTENKLGIANWLKDQGHELITTSDKEGETSELDKHIPDADIIITTPFHPAYITKERLDKAKNLKLVVVAGVGSDHIDLDYINQTGKKISVLEVTGSNVVSVAEHVVMTMLVLVRNFVPAHEQIINHDWEVAAIAKDAYDIEGKTIATIGAGRIGYRVLERLLPFNPKELLYYDYQALPKEAEEKVGARRVENIEELVAQADIVTVNAPLHAGTKGLINKELLSKFKKGAWLVNTARGAICVAEDVAAALESGQLRGYGGDVWFPQPAPKDHPWRDMRNKYGAGNAMTPHYSGTTLDAQTRYAEGTKNILESFFTGKFDYRPQDIILLNGEYVTKAYGKHDKK

Variants of: B1
Conditions: Pseudomonas putida (strain ATCC 47054 / DSM 6125 / CFBP 8728 / NCIMB 11950 / KT2440); pH 7.6; Fluorescence spectroscopy; whole UniProt chain shown

Variant	Tm [°C]
MPFQQGLLATPVPAHARHLFFTLQFPEALPAALDALLPQVDGKQLLLGVGAPLAKALGREIPGLRPFPLLDAAVENPSTQHALWLWLRGDDRGELLLRTQALEQALAPAFSLADSVDAFRHRGGRDLTGYEDGTENPTGEEAVQAAIALDGSSFVAFQLWKHDLQYFKALPQAEQDNIIGRRLSDNEELDDAPASAHVKRTAQESFEPEAFMVRRSVSWADQRGAGLAFVALGKSFEAFEVQLRRMSGLEDGIIDGLYRFSRPLTGGYYWCPPMSETGVDLSPLLRA [S25F E91D D94E L110F G118A L120R H125R D139G A149L A155V S169A D174E]	75
MPFQQGLLLTPVPAHARHLFFTLQFPEALPAALDALLPQVDGKQLLLGVGAPLAKALGREIPGLRPFPLLDAAVENPSTQHALWLWLRGDERGDLLLRTQALEQALAPAFSLADSVDAFRHRGGRDLTGYEDGTENPTDEEAVQAAIAADGSSFAAFQLWKHDLQYFKALPQAEQDNIIGRRLSDNEELDDAPASAHVKRTAQESFEPEAFMVRRSMPWADGRGAGLAFVAFGKSFDAFEVQLRRMSGLEDGIIDGLYRFSRPLTGGYYWCPPMSETGVDLSPLLRA [A9L S25F L110F G118A L120R H125R S169A D174E V217M S218P Q222G L232F E237D]	75
MPFQQGLLLTPVPAHARHLFFTLQFPEALPAALDALLPQVDGKQLLLGVGAPLAKALGREIPGLRPFPLLDAAVENPSTQHALWLWLRGDERGDLLLRTRALEQALAPAFSLADSVDAFRHRGGRDLTGYEDGTENPTGEEAVQAAIALDGSSFAAFQLWKHDLQYFKALPQADQDNIIGRRLSDNEELDDAPASAHVKRTAQESFEPEAFMVRRSVSWADQRGAGLAFVALGKSFDAFEVQLRRMSGLEDGIIDGLYRFSRPLTGGYYWCPPMSETGVDLSPLLRA [A9L S25F Q100R L110F G118A L120R H125R D139G A149L S169A E237D]	70
MPFQQGLLATPVPAHARHLFFTLQSPEDLPAALDRLLPQVDGKQLLLGIGAPLAKALGREIPGLRPFPLLDAAVENPSTQHALWLWLRGDERGDLLLRTQALEQALAPAFVLADEVDGFRYRDGHDLTGYEDGTENPQGDEAVEAAIADDGSSFAAFQLWKHDLQYFKSLPQADQDNIIGRRLSDNEELDDAPASAHVKRTAQESFEPEAFMVRRSVSWADGRGAGLAFVALGKSFEAFEVQLRRMSGLEDGIIDGLYRFSRPLTGGYYWCPPMSETGVDLSALLRA [A28D A35R V49I L110F S111V S115E L120R H121Y G123D T138Q D139G E140D Q144E A149D Q222G P283A]	74
MPFQQGLLATPVPAHAVHLFFTLQSPEDLPAALDALLPQVDGKQLLLGIGAPLAKALGREIPGLRPFPLLDAAVENPSTQHALWLWLRGDDRGDLFHRAQALIQALAPALSLADSVDGFLHRGGHDLTGYEDGTENPQGDEAVEAAIADDGSSFAAFQLWKHDLDYFKSLPQAEQDNIIGRRLSDNEELDDAPESAHVKRTAQESFEPEAFMVRRSMSWADGRGAGLAFVALGHSFDAFEVQLRRMSGLEDGIIDGLYRFSRPLTGGYYWCPPMSETGVDLSALLRA [R17V A28D V49I E91D L96F L97H T99A E103I T138Q D139G E140D Q144E A149D Q165D D174E A194E V217M Q222G K234H E237D P283A]	82
MPFQQGLLLTPVPAHARHLFFTLQFPEALPAALDALLPQVDGKQLLLGVGAPLAKALGREIPGLRPFPLLDAAVENPSTQHALWLWLRGDERGDLLLRTQALEQALAPALSLADSVDGFLHRGGHDLTGYEDGTENPTGEEAVQAAIALDGSSFVAFQLWKHDLQYFKSLPQADQDNIIGRRLSDNEELDDAPASAHVKRTAQESFEPEAFMVRRSVSWADQRGAGLAFVALGKSFEAFEVQLRRMSGLEDGIIDGLYRFSRPLTGGYYWCPPMSETGLDLSPLLRA [A9L S25F D139G A149L A155V V279L]	68
MPFQQGLLATPVPAHARHLFFTLQSPEALPAALDALLPQVDGKQLLLGIGAPLAKALGREIPGLRPFPLLDAAVENPSTQHALWLWLRGDDRGDLFHRAQALIQALAPAFVLADEVDGFLHRGGHDLTGYEDGTENPTDEEAVQAAIAADGSSFAAFQLWKHDLQYFKSLPQADQDNIIGRRLSDNEELDDAPASAHVKRTAQESFEPEAFMVRRSMSWADGRGAGLAFVALGKSFEAFEVQLRRMSGLEDGIIDGLYRFSRPLTGGYYWCPPMSETGVDLSPLLRA [V49I E91D L96F L97H T99A E103I L110F S111V S115E V217M Q222G]	65

Variants of: B2
Conditions: Candida boidinii; whole UniProt chain shown

Variant	Tm [°C]
MKIVLVLYDAGKHAADEEKLYGSTENKLGIANWLKDQGHELITTSDKEGETSELDKHIPDADIIITTPFHPAYITKERLDKAKNLKLVVVAGVGSDHIDLDYINQTGKKISVLEVTGSNVVSVAEHVVMTMLVLVRNFVPAHEQIINHDWEVAAIAKDAYDIEGKTIATIGAGRIGYRVLERLLPFNPKELLYYDYQALPKEAEEKVGARRVENIEELVAQADIVTVNAPLHAGTKGLINKELLSKFKKGAWLVNTARGAICVAEDVAAALESGQLRGYGGDVWFPQPAPKDHPWRDMRNKYGAGNAMTPHYSGTTLDAQTRYAEGTKNILESFFTGKFDYRPQDIILLNGEYVTKAYGKHDKK [C23S]	54
MKIVLVLYDAGKHAADEEKLYGCTENKLGIANWLKDQGHELITTSDKEGETSELDKHIPDADIIITTPFHPAYITKERLDKAKNLKLVVVAGVGSDHIDLDYINQTGKKISVLEVTGSNVVSVAEHVVMTMLVLVRNFVPMHEQIINHDWEVAAIAKDAYDIEGKTIATIGAGRIGYRVLERLLPFNPKELLYYDYQALPKEAEEKVGARRVENIEELVAQADIVTVNAPLHAGTKGLINKELLSKFKKGAWLVNTARGAICVAEDVAAALESGQLRGYGGDVWFPQPAPKDHPWRDMRNKYGAGNAMTPHYSGTTLDAQTRYAEGTKNILESFFTGKFDYRPQDIILLNGEYVTKAYGKHDKK [A141M]	35
MKIVLVLYDAGKHAADEEKLYGCTENKLGIANWLKDQGHELITTSDKEGETSELDKHIPDADIIITTPFHPAYITKERLDKAKNLKLVVVAGVGSDHIDLDYINQTGKKISVLEVTGSNVVSVAEHVVMTMLVLVRNFVPAHEQIINHLWEVAAIAKDAYDIEGKTIATIGAGRIGYRVLERLLPFNPKELLYYDYQALPKEAEEKVGARRVENIEELVAQADIVTVNAPLHAGTKGLINKELLSKFKKGAWLVNTARGAICVAEDVAAALESGQLRGYGGDVWFPQPAPKDHPWRDMRNKYGAGNAMTPHYSGTTLDAQTRYAEGTKNILESFFTGKFDYRPQDIILLNGEYVTKAYGKHDKK [D149L]	58
MKIVLVLYDAGKHAADEEKLYGCTENKLGIANWLKDQGHELITTSDKEGETSELDKHIPDADIIITTPFHPAYITKERLDKAKNLKLVVVAGVGSDHIDLDYINQTGKKISVLEVTGSNVVSVAEHVVMTMLVLVRNFVPAHEQIINHDWEVAAIAKDAYDIEGKTIATIGAGRIGYRVLERLLPFNPKELLYYDYQALPKEAEEKVGARRVENIEELVAQADIVTVNAPLHAGTKGLINKELLSKFKKGAWLVNTARGAICVPEDVAAALESGQLRGYGGDVWFPQPAPKDHPWRDMRNKYGAGNAMTPHYSGTTLDAQTRYAEGTKNILESFFTGKFDYRPQDIILLNGEYVTKAYGKHDKK [A264P]	59
MKIVLVLYDAGKHAADEEKLYGCTENKLGIANWLKDQGHELITTSDKEGETSELDKHIPDADIIITTPFHPAYITKERLDKAKNLKLVVVAGVGSDHIDLDYINQTGKKISVLEVTGSNVVSVAEHVVMTMLVLVRNFVPAHEQIINHDWEVAAIAKDAYDIEGKTIATIGAGRIGYRVLERLLPFNPKELLYYDYQALPKEAEEKVGARRVENIEELVAQADIVTVNAPLHAGTKGLINKELLSKFKKGAWLVNTARGAICVAEDVAAALESGQLRGYGGDVWFPQPAPKDHPWRDMRNKYGAGNAMTPHYSGTTLDAQTRYAEGTKNILESFFTGKFDYRPQDIILLWGEYVTKAYGKHDKK [N350W]	54
MKIVLVLYDAGKHAADEEKLYGCTENKLGIANWLKDQGHELITTSDKEGETSELDKHIPDADIIITTPFHPAYITKERLDKAKNLKLVVVAGVGSDHIDLDYINQTGKKISVLEVTGSNVVSVAEHVVMTMLVLVRNFVPAHEQIINHDWEVAAIAKDAYDIEGKTIATIGAGRIGYRVLERLLPFNPKELLYYDYQALPKEAEEKVGARRVENIEELVAQADIVTVNAPLHAGTKGLINKELLSKFKKGAWLVNTARGAICVAEDVAAALESGQLRGYGGDVWFPQPAPKDHPWRDMRNKYGAGNAMTPHYSGTTLDAQTRYAEGTKNILEYFFTGKFDYRPQDIILLNGEYVTKAYGKHDKK [S333Y]	55
